# B1: G2/mitotic-specific cyclin cig2 (Schizosaccharomyces pombe (strain ATCC 38366 / 972)), P36630 (parent)
# chain: MALYSISKPVGSKINKHSYQDENTLVGKQALSKGTEKTKLSTNFEINLPRRTVLSDVSNVGKNNADEKDTKKAKRSFDESNLSTNEEADKPVESKFVKKLKVYSKNADPSVETLQKDRVSNVDDHLSSNPLMAEEYAPEIFEYIRKLDLKCLPNPKYMDQQKELTWKMREILNEWLVEIHSNFCLMPETLYLAVNIIDRFLSRRSCSLSKFQLTGITALLIASKYEEVMCPSIQNFVYMTDGAFTVEDVCVAERYMLNVLNFDLSYPSPLNFLRKISQAEGYDAQTRTLGKYLTEIYLFDHDLLRYPMSKIAAAAMYLSRRLLRRGPWTPKLVESSGGYEEHELKEIAYIMLHYHNKPLEHKAFFQKYSSKRFLKASIFVHQLVRQRYSVNRTDDDDLQSEPSSSLTNDGH
# Variants of: B1
# Conditions: with cdk1_schpo cdc2, P04551
# Chain of cdk1_schpo cdc2, P04551 (P04551 whole entry): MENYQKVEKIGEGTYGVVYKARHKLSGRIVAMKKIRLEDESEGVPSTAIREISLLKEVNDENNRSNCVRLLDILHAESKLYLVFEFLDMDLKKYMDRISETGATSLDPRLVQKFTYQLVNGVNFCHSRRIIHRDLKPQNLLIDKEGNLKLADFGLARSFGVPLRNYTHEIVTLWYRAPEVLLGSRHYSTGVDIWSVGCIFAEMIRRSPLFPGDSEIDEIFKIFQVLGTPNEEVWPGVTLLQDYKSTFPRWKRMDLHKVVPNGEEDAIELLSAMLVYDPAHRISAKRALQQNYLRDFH
row,Variant,effect of a mutation on the interaction
1,MALYSISKPVGSKINKHSYQDENTLVGKQALSKGTEKTKLSTNFEINLPRRTVLSDVSNVGKNNADEKDTKKAKRSFDESNLSTNEEADKPVESKFVKKLKVYSKNADPSVETLQKDRVSNVDDHLSSNPLMAEEYAPEIFEYIRKLDLKCLPNPKYMDQQKELTWKMAAALNEWLVEIHSNFCLMPETLYLAVNIIDRFLSRRSCSLSKFQLTGITALLIASKYEEVMCPSIQNFVYMTDGAFTVEDVCVAERYMLNVLNFDLSYPSPLNFLRKISQAEGYDAQTRTLGKYLTEIYLFDHDLLRYPMSKIAAAAMYLSRRLLRRGPWTPKLVESSGGYEEHELKEIAYIMLHYHNKPLEHKAFFQKYSSKRFLKASIFVHQLVRQRYSVNRTDDDDLQSEPSSSLTNDGH [R169A;E170A;I171A],disrupting interaction
